In patent publication US20110256180A1 (CHILDREN S HOSPITAL AND RESEARCH CENTER AT OAKLAND, published 2011):
Positions count from the first letter of the chain named. In names and notes the source's numbering stands. Where two headings read alike, the source gives them in different places.

How the values were obtained:
[1] = target: human complement factor H (human) (UniProt P08603); experiment: ELISA, vs respective wildtype fHbp
[2] = target: T1, human complement factor H (human, UniProt P08603 19-1231); experiment: ELISA, fHbp on plate
T1 construct: also called human fH; fH

[3] = target: T1, human complement factor H; experiment: ELISA, vs respective wildtype fHbp
[4] = target: T1, human complement factor H; experiment: ELISA, vs respective wildtype fHbp; remark: listed apart in the source

T1 sequence (P08603 19-1231 limits assumed): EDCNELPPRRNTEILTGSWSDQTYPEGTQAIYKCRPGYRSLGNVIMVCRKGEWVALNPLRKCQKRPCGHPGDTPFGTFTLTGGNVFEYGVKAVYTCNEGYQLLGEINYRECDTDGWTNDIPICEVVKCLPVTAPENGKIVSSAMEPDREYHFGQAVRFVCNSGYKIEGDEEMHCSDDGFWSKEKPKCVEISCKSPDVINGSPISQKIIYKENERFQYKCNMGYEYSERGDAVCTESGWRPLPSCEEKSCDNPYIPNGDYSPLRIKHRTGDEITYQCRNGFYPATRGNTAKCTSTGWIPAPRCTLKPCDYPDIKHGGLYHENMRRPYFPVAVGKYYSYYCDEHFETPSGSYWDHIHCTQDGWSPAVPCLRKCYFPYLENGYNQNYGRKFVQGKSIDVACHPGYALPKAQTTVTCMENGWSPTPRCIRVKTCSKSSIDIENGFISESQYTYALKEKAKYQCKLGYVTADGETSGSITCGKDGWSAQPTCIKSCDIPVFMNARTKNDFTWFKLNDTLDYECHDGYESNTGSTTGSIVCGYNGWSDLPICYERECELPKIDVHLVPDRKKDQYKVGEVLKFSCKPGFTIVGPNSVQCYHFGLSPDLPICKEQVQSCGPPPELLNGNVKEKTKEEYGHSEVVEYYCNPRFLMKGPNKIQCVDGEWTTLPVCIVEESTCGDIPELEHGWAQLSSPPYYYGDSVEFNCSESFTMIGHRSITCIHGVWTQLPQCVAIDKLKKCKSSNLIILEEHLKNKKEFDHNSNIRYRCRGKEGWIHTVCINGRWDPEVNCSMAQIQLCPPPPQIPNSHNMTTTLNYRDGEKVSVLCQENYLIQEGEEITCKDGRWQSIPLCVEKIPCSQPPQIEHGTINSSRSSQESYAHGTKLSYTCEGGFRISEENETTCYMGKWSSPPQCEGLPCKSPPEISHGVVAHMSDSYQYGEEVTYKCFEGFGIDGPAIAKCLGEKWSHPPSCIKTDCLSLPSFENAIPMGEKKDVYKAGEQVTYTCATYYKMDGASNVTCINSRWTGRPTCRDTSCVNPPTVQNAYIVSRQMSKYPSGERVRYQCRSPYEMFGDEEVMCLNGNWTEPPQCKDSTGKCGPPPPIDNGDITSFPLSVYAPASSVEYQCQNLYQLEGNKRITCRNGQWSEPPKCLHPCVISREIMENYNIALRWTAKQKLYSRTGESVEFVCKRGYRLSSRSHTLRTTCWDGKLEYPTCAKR
Chain of human complement factor H (human) (P08603 19-1231 limits assumed): as above

fHbp ID 9 R41S mutant
Fold-Decrease in fH binding [1]: > 50 fold

fHbp ID 74 R41S mutant
Fold-Decrease in fH binding [1]: > 50 fold

B1: fHbp ID 22 R80A mutant (protein)
chain: CSSGGGGVAADIGAGLADALTAPLDHKDKSLQSLTLDQSVRKNEKLKLAAQGAEKTYGNGDSLNTGKLKNDKVSRFDFIAQIEVDGQLITLESGEFQIYKQDHSAVVALQIEKINNPDKIDSLINQRSFLVSGLGGEHTAFNQLPSGKAEYHGKAFSSDDPNGRLHYSIDFTKKQGYGRIEHLKTPEQNVELASAELKADEKSHAVILGDTRYGGEEKGTYHLALFGDRAQEIAGSATVKIREKVHEIGIAGKQ
Fold-Decrease in fH binding [1]: > 50 fold

B2: fHbp ID 22 D211A mutant (protein)
chain: B1 chain with A80R, D210A
Fold-Decrease in fH binding [1]: > 50 fold

B3: fHbp ID 22 E218A mutant (protein)
chain: B1 chain with A80R, E217A
Fold-Decrease in fH binding [1]: > 50 fold

B4: fHbp ID 22 E248A mutant (protein)
chain: B1 chain with A80R, E247A
Fold-Decrease in fH binding [1]: > 50 fold

B5: fHbp ID 22 G236I mutant (protein)
chain: B1 chain with A80R, G235I
Fold-Decrease in fH binding [1]: > 50 fold

B6: fHbp ID 22 T220A/H222A double mutant (protein)
chain: B1 chain with A80R, T220A, H222A
Fold-Decrease in fH binding [1]: > 50 fold

B7: fHbp ID 15 E241K mutant (other)
chain: CSSGGGGSGGGGVAADIGAGLADALTAPLDHKDKGLKSLTLEDSISQNGTLTLSAQGAERTFKAGDKDNSLNTGKLKNDKISRFDFIRQIEVDGQLITLESGEFQVYKQSHSALTALQTEQVQDSEHSGKMVAKRQFRIGDIVGEHTSFGKLPKDVMATYRGTAFGSDDAGGKLTYTIDFAAKQGHGKIEHLKSPELNVDLAAADIKPDEKHHAVISGSVLYNQAEKGSYSLGIFGGQAQEVAGSAEVKTANGIRHIGLAAKQ
fold effect on fH binding relative to wildtype fHbp [2]: < 2 fold
Fold-Decrease in fH binding [3]: 0 fold

B8: fHbp ID 15 S41P mutant (other)
chain: B7 chain with S46P, K249E
notes: also called Pep 15 S41P
binding result [2]: no binding
Fold-Decrease in fH binding [4]: > 50 fold

B9: fHbp ID 22, wild-type (variant group 2, modular group III) (other)
chain: B1 chain with A80R
notes: Recombinant; also called ID 22 (III); WT ID 22
Fold-Decrease in fH binding [4]: 0 fold

B10: fHbp ID 22 A235G mutant (other)
chain: B1 chain with A80R, A234G
Fold-Decrease in fH binding [3]: 0 fold

B11: fHbp ID 22 D201A mutant (other)
chain: B1 chain with A80R, D200A
notes: also called D201A (ID 22)
Fold-Decrease in fH binding [3]: 0 fold

B12: fHbp ID 22 E202A mutant (other)
chain: B1 chain with A80R, E201A
Fold-Decrease in fH binding [3]: 0 fold

B13: fHbp ID 22 Q38A mutant (other)
chain: B1 chain with Q38A, A80R
fold reduction in fH binding vs wildtype fHbp ID 22 [2]: < 4 fold
Fold-Decrease in fH binding [3]: 0 fold

B14: fHbp ID 22 Q126A mutant (other)
chain: B1 chain with A80R, Q126A
fold reduction in fH binding vs wildtype fHbp ID 22 [2]: < 4 fold
Fold-Decrease in fH binding [3]: 0 fold

B15: fHbp ID 22 R41S mutant (other)
chain: B1 chain with R41S, A80R
notes: also called R41S (ID 22)
fold reduction in fH binding vs wildtype fHbp ID 22 [2]: < 4 fold
Fold-Decrease in fH binding [3]: 0 fold

B16: fHbp ID 14 (natural variant, variant group 1, modular group I) (other)
chain: CSSGGGGVAADIGAGLADALTAPLDHKDKSLQSLTLDQSVRKNEKLKLAAQGAEKTYGNGDSLNTGKLKNDKVSRFDFIRQIEVDGQLITLESGEFQVYKQSHSALTALQTEQEQDPEHSGKMVAKRRFKIGDIAGEHTSFDKLPKDVMATYRGTAFGSDDAGGKLTYTIDFAAKQGHGKIEHLKSPELNVELATAYIKPDEKHHAVISGSVLYNQDEKGSYSLGIFGGQAQEVAGSAEVETANGIHHIGLAAKQ
notes: Recombinant
binding result [2]: binds

B17: fHbp ID 77, wild-type (strain 8047, variant group 2, modular group VI) (other)
chain: CSSGGGGVAADIGARLADALTAPLDHKDKSLQSLTLDQSVRKNEKLKLAAQGAEKTYGNGDSLNTGKLKNDKVSRFDFIRQIEVDGQLITLESGEFQIYKQDHSAVVALQIEKINNPDKIDSLINQRSFLVSGLGGEHTAFNQLPDGKAEYHGKAFSSDDAGGKLTYTIDFAAKQGHGKIEHLKTPEQNVELAAAELKADEKSHAVILGDTRYGSEEKGTYHLALFGDRAQEIAGSATVKIGEKVHEIGIAGKQ
notes: Recombinant; also called ID 77 (VI); wildtype fHbp ID 77
Fold-Decrease in fH binding [4]: 0 fold

B18: fHbp ID 77 D121A mutant (other)
chain: B17 chain with D121A
fold decrease in fH binding compared with wildtype fHbp ID 77 [2]: ~4 fold
Fold-Decrease in fH binding [3]: 0 fold

B19: fHbp ID 77 K113A mutant (other)
chain: B17 chain with K113A
Fold-Decrease in fH binding [3]: 0 fold

B20: fHbp ID 77 K113A/D121A double mutant (other)
chain: B17 chain with K113A, D121A
fold decreased binding of fH [2]: ~10 fold

B21: fHbp ID 77 K119A mutant (other)
chain: B17 chain with K119A
fold increase in fH binding compared to wildtype fHbp ID 77 [2]: ~4 fold
Fold-Decrease in fH binding [3]: 0 fold

B22: fHbp ID 77 R41S mutant (other)
chain: B17 chain with R41S
notes: also called R41S (ID 77)
Fold-Decrease in fH binding [3]: 0 fold

B23: fHbp ID 77 R41S/D121A double mutant (other)
chain: B17 chain with R41S, D121A
fold less binding to fH than wildtype fHbp ID 77 [2]: ~10 fold
Fold-Decrease in fH binding [4]: > 10 fold

B24: fHbp ID 28, wild-type (strain M1239, variant group 3, modular group II) (other)
chain: CSSGGGGSGGGGVAADIGTGLADALTAPLDHKDKGLKSLTLEDSIPQNGTLTLSAQGAEKTFKAGDKDNSLNTGKLKNDKISRFDFVQKIEVDGQTITLASGEFQIYKQNHSAVVALQIEKINNPDKTDSLINQRSFLVSGLGGEHTAFNQLPGGKAEYHGKAFSSDDPNGRLHYSIDFTKKQGYGRIEHLKTLEQNVELAAAELKADEKSHAVILGDTRYGSEEKGTYHLALFGDRAQEIAGSATVKIGEKVHEIGIAGKQ
notes: Recombinant; also called Pep28; peptide 28
binding result [2]: binds

B25: fHbp ID 28 D201A mutant (other)
chain: B24 chain with D208A
notes: also called D201A (ID 28)
binding result [2]: binds

B26: fHbp ID 28 E197A mutant (other)
chain: B24 chain with E204A
binding result [2]: binds

B27: fHbp ID 28 E218A mutant (other)
chain: B24 chain with E225A
notes: also called E218A (ID 28)
binding result [2]: binds

B28: fHbp ID 28 K245A mutant (other)
chain: B24 chain with K252A
binding result [2]: binds

B29: fHbp chimera I R41S mutant (other)
chain: CSSGGGGVAADIGAGLADALTAPLDHKDKGLQSLTLDQSVSKNEKLKLAAQGAEKTYGNGDSLNTGKLKNDKVSRFDFIRQIEVDGQLITLESGEFQVYKQSHSALTAFQTEQIQDSEHSGKMVAKRQFRIGDIAGEHTAFNQLPDGKAEYHGKAFSSDDAGGKLTYTIDFAAKQGHGKIEHLKTPEQNVELAAAELKADEKSHAVILGDTRYGSEEKGTYHLALFGDRAQEIAGSATVKIGEKVHEIGIAGKQ
notes: Recombinant; also called R41S mutant of the fHbp chimera I
binding result [2]: no binding
